Measured values as given in article PMC12268258.
Where two headings read alike, the source gives them in different places.

Experiments:
Assay in all cases: BLI
HB125scFv-2 D33H/E56H [1] = target: HB125scFv-2 D33H/E56H
HB125scFv-2 D33H [2] = target: HB125scFv-2 D33H
HB125scFv-2 E56H [3] = target: HB125scFv-2 E56H
HB125scFv-2 N54H [4] = target: HB125scFv-2 N54H
HB125scFv-2 T32H [5] = target: HB125scFv-2 T32H
HB125scFv-2 Y242H [6] = target: HB125scFv-2 Y242H
HB125scFv-2 D33H/E56H [7] = target: HB125scFv-2 D33H/E56H; remark: listed apart in the source
HB125scFv-2 D33H [8] = target: HB125scFv-2 D33H; remark: listed apart in the source
HB125scFv-2 E56H [9] = target: HB125scFv-2 E56H; remark: listed apart in the source
HB125scFv-2 N54H [10] = target: HB125scFv-2 N54H; remark: listed apart in the source
HB125scFv-2 T32H [11] = target: HB125scFv-2 T32H; remark: listed apart in the source
HB125scFv-2 Y242H [12] = target: HB125scFv-2 Y242H; remark: listed apart in the source
HB125scFv-2 T32H [13] = target: HB125scFv-2 T32H; remark: listed apart in the source

## human insulin (from UniProt P01308 90-110; P01308 25-54) (natural protein)
HB125scFv-2 D33H/E56H [1]
  Kd: 250 nM
  koff: 0.00557 s⁻¹
  kon: 23700 M⁻¹ s⁻¹
HB125scFv-2 D33H [2]
  Kd: 36 nM
  koff: 0.00176 s⁻¹
  kon: 60500 M⁻¹ s⁻¹
HB125scFv-2 E56H [3]
  Kd: 160 nM
  koff: 0.0058 s⁻¹
  kon: 43400 M⁻¹ s⁻¹
HB125scFv-2 N54H [4]
  Kd: 165 nM
  koff: 0.00341 s⁻¹
  kon: 26000 M⁻¹ s⁻¹
HB125scFv-2 T32H [5]
  Kd: 17.4 nM
  koff: 0.00166 s⁻¹
  kon: 89700 M⁻¹ s⁻¹
HB125scFv-2 Y242H [6]
  Kd: 478 nM
  koff: 0.00854 s⁻¹
  kon: 18800 M⁻¹ s⁻¹
HB125scFv-2 D33H/E56H [7]
  Kd: 426 nM
  koff: 0.0073 s⁻¹
  kon: 19100 M⁻¹ s⁻¹
HB125scFv-2 D33H [8]
  Kd: 51.7 nM
  koff: 0.00154 s⁻¹
  kon: 27800 M⁻¹ s⁻¹
HB125scFv-2 E56H [9]
  Kd: 548 nM
  koff: 0.00577 s⁻¹
  kon: 12700 M⁻¹ s⁻¹
HB125scFv-2 N54H [10]
  Kd: 206 nM
  koff: 0.00286 s⁻¹
  kon: 15700 M⁻¹ s⁻¹
HB125scFv-2 T32H [11]
  Kd: 146 nM
  koff: 0.00351 s⁻¹
  kon: 42900 M⁻¹ s⁻¹
  percent change of wavelength shift, association 0.5 μM → 1 μM: 57%
  percent change of wavelength shift, association 1 μM → 0.5 μM: 23%
  percent change of wavelength shift, association 1 μM → 2 μM: 49%
  percent change of wavelength shift, association 2 μM → 1 μM: 21%
  percent change of wavelength shift, average association: 37%
  percent change of wavelength shift, average dissociation: -21%
  percent change of wavelength shift, dissociation 0.5 μM → 0 μM (first): -22%
  percent change of wavelength shift, dissociation 0.5 μM → 0 μM (second): -17%
  percent change of wavelength shift, dissociation 1 μM → 0 μM (first): -23%
  percent change of wavelength shift, dissociation 1 μM → 0 μM (second): -22%
  percent change of wavelength shift, dissociation 2 μM → 0 μM: -20%
HB125scFv-2 Y242H [12]
  Kd: 1480 nM
  koff: 0.012 s⁻¹
  kon: 8040 M⁻¹ s⁻¹
HB125scFv-2 T32H [13]
  percent change of wavelength shift, association 0.5 μM → 1 μM: 31%
  percent change of wavelength shift, association 1 μM → 0.5 μM: 15%
  percent change of wavelength shift, association 1 μM → 2 μM: 39%
  percent change of wavelength shift, association 2 μM → 1 μM: 20%
  percent change of wavelength shift, average association: 26%
  percent change of wavelength shift, average dissociation: -17%
  percent change of wavelength shift, dissociation 0.5 μM → 0 μM (first): -18%
  percent change of wavelength shift, dissociation 0.5 μM → 0 μM (second): -11%
  percent change of wavelength shift, dissociation 1 μM → 0 μM (first): -15%
  percent change of wavelength shift, dissociation 1 μM → 0 μM (second): -18%
  percent change of wavelength shift, dissociation 2 μM → 0 μM: -21%
